Results: the Immune Epitope Database (IEDB)

Legend:
Experiment in all cases: IEDB peptide-MHC binding, purified MHC/competitive/fluorescence; filed as Kd, often an IC50 or EC50 that approximates it; ≥ and ≤ were set here for values at or beyond the usual limits of such assays
Conditions in all cases: source organism: Salmonella enterica subsp. enterica serovar Typhi
HLA-A*01:01 = biological target: HLA-A*01:01
HLA-A*02:01 = biological target: HLA-A*02:01
HLA-A*02:03 = biological target: HLA-A*02:03
HLA-A*02:06 = biological target: HLA-A*02:06
HLA-A*03:01 = biological target: HLA-A*03:01
HLA-A*03:19 = biological target: HLA-A*03:19
HLA-A*11:01 = biological target: HLA-A*11:01
HLA-A*25:01 = biological target: HLA-A*25:01
HLA-A*30:01 = biological target: HLA-A*30:01
HLA-A*31:01 = biological target: HLA-A*31:01
HLA-A*68:23 = biological target: HLA-A*68:23
HLA-A*69:01 = biological target: HLA-A*69:01
HLA-B*08:01 = biological target: HLA-B*08:01
HLA-B*15:01 = biological target: HLA-B*15:01
HLA-B*15:09 = biological target: HLA-B*15:09
HLA-B*15:17 = biological target: HLA-B*15:17
HLA-B*39:01 = biological target: HLA-B*39:01
HLA-B*45:06 = biological target: HLA-B*45:06
HLA-B*48:01 = biological target: HLA-B*48:01
HLA-B*51:01 = biological target: HLA-B*51:01
HLA-B*57:01 = biological target: HLA-B*57:01
HLA-B*58:01 = biological target: HLA-B*58:01
HLA-C*06:02 = biological target: HLA-C*06:02
HLA-C*14:02 = biological target: HLA-C*14:02

SVIDHIHYM was tested, and the Kd (HLA-A*01:01) was ≥ 20000 nM, the Kd (HLA-A*02:01) was 4.9 nM and the Kd (HLA-A*02:03) was 3.1 nM. For the same sequence, the Kd (HLA-A*02:06) was ≤ 1 nM, the Kd (HLA-A*03:01) was ≥ 20000 nM and the Kd (HLA-A*03:19) was 982 nM. The Kd (HLA-A*11:01) was 71.7 nM, the Kd (HLA-A*25:01) was 13.7 nM and the Kd (HLA-A*30:01) was ≥ 20000 nM. It also gave a Kd (HLA-A*31:01) of 231 nM, a Kd (HLA-A*68:23) of 0.2 nM and a Kd (HLA-A*69:01) of 0.6 nM. The Kd (HLA-B*08:01) was ≥ 20000 nM, the Kd (HLA-B*15:01) was 145 nM and the Kd (HLA-B*15:09) was ≥ 20000 nM. For the same sequence, the Kd (HLA-B*15:17) was 50 nM, the Kd (HLA-B*39:01) was 2800 nM and the Kd (HLA-B*45:06) was ≥ 5000 nM. For the same sequence, the Kd (HLA-B*48:01) was ≥ 20000 nM, the Kd (HLA-B*51:01) was ≥ 20000 nM and the Kd (HLA-B*57:01) was 1530 nM. It also gave a Kd (HLA-B*58:01) of 290 nM, a Kd (HLA-C*06:02) of 26 nM and a Kd (HLA-C*14:02) of 38.4 nM.
